In patent US20020025923A1 (University of California, published 2002):

B1: L-selectin/IgG chimera (entire extracellular domain of murine L-selectin fused to the Fc domain of human IgG1) (Fc fusion, UniProt P18337 39-332, looked up)
chain: WTYHYSEKPMNWENARKFCKQNYTDLVAIQNKREIEYLENTLPKSPYYYWIGIRKIGKMWTWVGTNKTLTKEAENWGAGEPNNKKSKEDCVEIYIKRERDSGKWNDDACHKRKAALCYTASCQPGSCNGRGECVETINNHTCICDAGYYGPQCQYVVQCEPLEAPELGTMDCIHPLGNFSFQSKCAFNCSEGRELLGTAETQCGASGNWSSPEPICQVVQCEPLEAPELGTMDCIHPLGNFSFQSKCAFNCSEGRELLGTAETQCGASGNWSSPEPICQETNRSFSKIKEGDYN
notes: extracellular domain; From supernatants of transfected 293 cells, protein-A purified; also called recombinant L-selectin/IgG chimera; not shown: Fc domain of human IgG1
B2: CD34, component of PNAd from human tonsil (ligand, UniProt P28906 32-385, looked up)
chain: SLDNNGTATPELPTQGTFSNVSTNVSYQETTTPSTLGSTSLHPVSQHGNEATTNITETTVKFTSTSVITSVYGNTNSSVQSQTSVISTVFTTPANVSTPETTLKPSLSPGNVSDLSTTSTSLATSPTKPYTSSSPILSDIKAEIKCSGIREVKLTQGICLEQNKTSSCAEFKKDRGEGLARVLCGEEQADADAGAQVCSLLLAQSEVRPQCLLLVLANRTEISSKLQLMKKHQSDLKKLGILDFTEQDVASHQSYSQKTLIALVTSGALLAVLGITGYFLMNRRSWSPTGERLGEDPYYTENGGGQGYSSGPGTSPEAQGKASVNRGAQENGTGQATSRNGHSARQHVVADTEL
modifications: native glycoprotein carrying the MECA-79 epitope

Assays:
[1] = molecular target: B2; assay: precipitation of PNAd with the L-selectin/IgG chimera, elution with EDTA
[2] = molecular target: T1, CD4/IgG chimera (entire extracellular domain of human CD4 fused to the Fc domain of human IgG1) (human, UniProt P01730 26-396); assay: precipitation of PNAd with the IgG chimera (CD34 as a named component of PNAd)
T1 construct: extracellular domain; Control chimera; also called control CD4/IgG chimera; not shown: Fc domain of human IgG1

B1: binds [1].

B2: no binding [2].
